In article PMC4864350, “Fluorogenic Substrates for In Situ Monitoring of Caspase-3 Activity in Live Cells” (PLoS ONE, 2016):
*: point of attachment. MethylRed = CN(C)c1ccc(/N=N/c2ccccc2C(=O)*)cc1; FAM = 5(6)-carboxyfluorescein; peptoid = not defined here; Ahx = NCCCCCC(=O)O

Legend:
caspase-3 = target: T1, caspase-3 (Homo sapiens, UniProt P42574); assay: Kinetic assay of fluorogenic substrates with caspase-3; format: biochemical; conditions: substrate range 0.1–8 μM, enzyme 20 nM (1–9) or 15 nM (10–14), n = 3
T1 construct: purchased R&D systems, USA
T1 sequence (P42574 29-175 limits assumed): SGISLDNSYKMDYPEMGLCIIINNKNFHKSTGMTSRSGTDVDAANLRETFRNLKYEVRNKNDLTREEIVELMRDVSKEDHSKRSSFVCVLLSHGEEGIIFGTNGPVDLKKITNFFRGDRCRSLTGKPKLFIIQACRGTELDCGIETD
T1 sequence (P42574 176-277 limits assumed): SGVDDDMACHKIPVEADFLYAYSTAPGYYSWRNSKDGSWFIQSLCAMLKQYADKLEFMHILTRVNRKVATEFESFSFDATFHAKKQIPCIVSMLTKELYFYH
Protocol: The ability of […] (bearing MR as the quencher of choice) to act as s substrate for caspase-3, as well as caspase-7, was investigated by determining the catalytic efficiency (kcat/KM) for each substrate with both enzymes (Table 2).
Caspase-3 or caspase-7 (R&D systems, USA) was added to 100 μL of caspase assay buffer with substrates 1–14 at concentrations from 0.1 μM to 8 μM in a 96-well plate (n = 3) to give final enzyme concentration of 20 nM (1–9) or 15 nM (10–14). Fluorescence (λEx/Em 485/528 nm) was recorded on a Biotek Synergy HT Multi-Mode Microplate Reader every 2 min. Control samples had the same composition but no enzyme. The rate (μM/min) was calibrated using a 5(6)-carboxyfluorescein conversion factor (0.0055 μM/RFU) and data plotted against time (min). For initial cleavage rate (0–5 min), plots were fitted using linear regression analysis and the Michaelis-Menten data generated using GraphPad Prism 5.

HEK293T cells = assay: Live-cell confocal imaging of caspase-3 activation; format: cell-based; conditions: 27 at 10 μM
Protocol: Fig 5 Confocal microscopy images of HEK293T and MCF-7 cells treated with substrate 27. Confocal microscopy images (objective HCX PL APO ×63/1.40–0.6 Oil CS) of HEK273T cells with substrate 27 (10 μM) without staurosporine (STS) (A) and with staurosporine (1 μM) (B) induced apoptosis (green fluorescence is from fluorescein “turned on” by caspase-3 cleavage of the substrate, blue is DAPI nuclear stain). (C) Staurosporine treated MCF-7 cells with substrate 27.
Cell culture was performed in a Heracell 150 incubator (Heraeus) and in a Herasafe KS 18 class II negative-flow cabinet (Heraeus). […] Fluorescence was evaluated as mean fluorescence intensity (MFI) and estimated <100 u.a. for untreated control cells (consistent values independently of staurosporine addition). Apoptotic cells treated with substrate 1 were used as a positive control to obtain the maximum of fluorescence signal. […] The data were analysed using the software Flowjo® 7.5.
For confocal microscopy, the cells were fixed with 4% paraformaldehyde in PBS and the nuclei stained with Hoechst-33342 (1% w/v in PBS). Cellular fluorescence of cells was analysed using an Inverted Leica DM IRB with filter I3 (450–490 nm) and a Leica SP5 Confocal (FITC and DAPI channel).

substrate 27: FAM-Ahx-Asp-Leu-Pro-Asp-Lys(MR)-Ahx, conjugated to the cell penetrating peptoid at the C-terminus ({FAM-Ahx}-DLPDK(MethylRed)-{Ahx-peptoid}; reading uncertain; also: printed as FAM-Ahx-Asp-Leu-Pro-Asp-Lys(MR)-Ahx)
Km (caspase-3; fluorescence λEx/Em 485/528 nm, initial rate 0–5 min, Michaelis-Menten): 1.1 ± 0.3 µM
Kcat, Caspase-3 (caspase-3): 0.035 ± 0.013 s⁻¹
fluorescence turn-on in apoptotic cells (confocal) (HEK293T cells; staurosporine 1 μM): only detected in the cytoplasm of apoptotic HEK293T cells
fluorescence in non-apoptotic cells (confocal) (HEK293T cells; without staurosporine): no increase in fluorescence observed
